Assay [1] concerns the target T1, Human C5 (human, UniProt P01031 19-1676).
T1 construct: The natural protein has a beta and an alpha chain; also called complement factor 5; complement component 5
Put plainly: SPR, mAb captured by anti-hFc, 25C. As to the method: (§1) Equilibrium dissociation constants (KD values) for C5 binding to purified anti-C5 antibodies were determined using a real-time surface plasmon resonance biosensor assay on a Biacore T200 instrument. The Biacore sensor surface was derivatized by amine coupling with a monoclonal mouse anti-human Fc antibody (GE Healthcare, # BR-1008-39) to capture anti-C5 antibodies expressed with human Fc constant regions. Biacore binding studies were conducted in HBST running buffer (0.01M HEPES pH 7.4, 0.15M NaCl, 3 mM EDTA, 0.05% v/v Surfactant P20).
(§2) Human C5 was obtained from a commercial source (EMD). Other C5 reagents were expressed with a C-terminal myc-myc-hexahistidine tag (subsequently referred to as C5-mmh). […] Association of all the C5 reagents to each of the captured monoclonal antibodies was monitored for 3 minutes and their dissociation in HBST running buffer was monitored for 8 minutes. All the binding kinetics experiments were performed at either 25° C. or 37° C. Kinetic association (kₐ) and dissociation (kd) rate constants were determined by fitting the real-time sensorgrams to a 1:1 binding model using Scrubber 2.0c curve fitting software. Binding dissociation equilibrium constants (KD) and dissociative half-lives (t %) were calculated from the kinetic rate constants as: KD (M)=kd/kₐ and t_{1/2} (min)=In2/(60×kd)
(In general: SPR reads the build-up and loss of mass on a sensor chip optically.)

The target in assay [2] is T2, monkey C5-mmh (monkey, UniProt P01031 19-1676 (human entry), limits assumed).
T2 construct: Expressed with a C-terminal myc-myc-hexahistidine tag
T2 chain: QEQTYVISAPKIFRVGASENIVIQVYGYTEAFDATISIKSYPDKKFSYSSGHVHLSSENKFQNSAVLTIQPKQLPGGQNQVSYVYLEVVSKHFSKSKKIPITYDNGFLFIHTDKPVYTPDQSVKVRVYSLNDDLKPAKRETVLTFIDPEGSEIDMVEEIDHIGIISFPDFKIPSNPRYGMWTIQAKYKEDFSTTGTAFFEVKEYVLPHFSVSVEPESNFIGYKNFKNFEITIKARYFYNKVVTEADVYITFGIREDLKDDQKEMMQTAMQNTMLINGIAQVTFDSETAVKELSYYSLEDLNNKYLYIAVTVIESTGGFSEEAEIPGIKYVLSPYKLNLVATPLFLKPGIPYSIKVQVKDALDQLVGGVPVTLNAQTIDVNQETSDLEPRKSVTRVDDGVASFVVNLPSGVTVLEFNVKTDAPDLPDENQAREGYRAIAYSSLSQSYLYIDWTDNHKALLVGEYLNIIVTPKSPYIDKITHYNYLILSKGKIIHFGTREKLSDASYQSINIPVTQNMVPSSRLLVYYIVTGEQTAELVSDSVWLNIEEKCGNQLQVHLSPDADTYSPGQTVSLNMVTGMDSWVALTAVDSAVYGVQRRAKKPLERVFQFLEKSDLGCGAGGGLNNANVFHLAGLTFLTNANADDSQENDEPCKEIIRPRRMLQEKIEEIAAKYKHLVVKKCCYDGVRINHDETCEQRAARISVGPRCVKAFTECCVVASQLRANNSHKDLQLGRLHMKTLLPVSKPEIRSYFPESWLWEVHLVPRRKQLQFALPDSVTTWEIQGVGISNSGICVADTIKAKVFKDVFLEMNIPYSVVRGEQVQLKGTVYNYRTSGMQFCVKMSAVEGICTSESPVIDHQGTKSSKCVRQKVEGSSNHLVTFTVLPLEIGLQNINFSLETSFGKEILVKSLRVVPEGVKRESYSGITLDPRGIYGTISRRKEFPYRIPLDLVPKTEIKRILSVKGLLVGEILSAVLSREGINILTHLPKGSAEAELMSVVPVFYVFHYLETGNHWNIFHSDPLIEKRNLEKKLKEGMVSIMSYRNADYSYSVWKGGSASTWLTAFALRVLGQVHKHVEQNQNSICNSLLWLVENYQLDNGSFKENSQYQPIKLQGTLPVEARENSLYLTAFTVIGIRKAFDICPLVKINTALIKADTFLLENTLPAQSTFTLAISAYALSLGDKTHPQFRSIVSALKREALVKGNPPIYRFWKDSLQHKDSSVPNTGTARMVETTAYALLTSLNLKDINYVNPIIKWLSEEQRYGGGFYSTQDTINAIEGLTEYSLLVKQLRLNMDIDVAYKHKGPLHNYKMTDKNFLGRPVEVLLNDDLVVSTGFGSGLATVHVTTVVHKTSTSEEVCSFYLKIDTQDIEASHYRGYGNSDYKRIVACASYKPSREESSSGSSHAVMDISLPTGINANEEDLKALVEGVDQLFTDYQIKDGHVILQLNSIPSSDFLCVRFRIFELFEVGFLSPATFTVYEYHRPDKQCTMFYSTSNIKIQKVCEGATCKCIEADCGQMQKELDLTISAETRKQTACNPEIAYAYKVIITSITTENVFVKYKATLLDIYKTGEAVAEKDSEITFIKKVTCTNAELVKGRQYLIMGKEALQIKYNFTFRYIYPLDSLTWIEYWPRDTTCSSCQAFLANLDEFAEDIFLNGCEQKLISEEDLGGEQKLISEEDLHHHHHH
Put plainly: SPR, mAb captured by anti-hFc, 25C. As to the method: as §1, §2

Assay [3] deals with T1, Human C5. Put plainly: SPR, mAb captured by anti-hFc, 37C. As to the method: as §1, §2

B1: H4H12175P (antibody, human IgG4, V domains shown)
VH: EVQLVESGGGVVQPGGSLRLSCAASGFTFNDYAMHWVRQAPGKGLEWVSLISGDGGNTYYADSVKGRLTISRDNSKNSLYLQMNSLRTEDTALYYCAKDKGWNFGYFDLWGRGTLVTVSS
VL: DIQMTQSPSSLSTSVGDRVTITCRASQNIDTYLNWYQQKPGKAPKLLIYDASSLQSGVPSRFSGSGSGTDFTLTITSLQPEDFATYYCQQNDNILHPLTFGGGTKVEIK
As to B1, in assay [1], the “100 nM Human C5 Bound (RU)” value was 100 RU; the Kd – broadly, the free concentration of one partner at which half of the binding sites on the other are occupied at equilibrium, for simple one-to-one binding – came out at 910 pM; the koff (commonly the first-order rate constant of dissociation) was 0.000196 s⁻¹; the kon (commonly a measure of how fast the partners come together) was 216000 M⁻¹ s⁻¹. For the same molecule, the t½ – broadly, how long it takes for the measured level to halve – in assay [1] came to 0.983 h. In assay [2], the “100 nM monkey C5-mmh Bound (RU)” value turned out to be 59 RU, the dissociation constant (Kd) came to 25700 pM, the koff is 0.00165 s⁻¹ and the kon was determined as 64200 M⁻¹ s⁻¹. Also, the “t1/2” value in assay [2] worked out at 0.117 h. Also, in assay [3], the “100 nM Human C5 Bound (RU)” value is 132 RU, binding was put at a Kd of 2150 pM, the koff is 0.000637 s⁻¹ and the kon is 296000 M⁻¹ s⁻¹. In assay [3], this molecule yielded a t½ of 0.3 h.

B2: H4H12164P (antibody, human IgG4, V domains shown)
VH: EVQLVESGGGLVRSGGSLRLSCAASGFTFNRYAMTWVRQAPGKGLEWVSAISGSGSSTYYTDSVKGRFTISRDNSKNSVDLQMHSLRVEDTAIYYCARGTTVTTGYGMDVWGQGTTVTVSS
VL: DIQMTQSPSSLSASVGDRVTFTCQASQDITNSLNWYQQKPGRAPKLLIYDASYLKAGVPSRFSGSGSGTDFTFTISSLQPEDIATYYCQQYDDLPYTFGQGTKLEIK
As to B2, in assay [1], the “100 nM Human C5 Bound (RU)” value amounted to 103 RU, the Kd came out at 302 pM, the koff worked out at 8.84e-05 s⁻¹ and the kon came out at 292000 M⁻¹ s⁻¹. In assay [1], this molecule yielded a t½ of 2.18 h. In assay [2], the “100 nM monkey C5-mmh Bound (RU)” value worked out at 66 RU, the Kd turned out to be 12000 pM, the koff is 0.00153 s⁻¹ and the kon was 127000 M⁻¹ s⁻¹. Besides, the “t1/2” value in assay [2] was determined as 0.133 h. Also, in assay [3], the “100 nM Human C5 Bound (RU)” value came to 140 RU, binding was put at a Kd of 323 pM, the koff worked out at 0.000128 s⁻¹ and the kon is 396000 M⁻¹ s⁻¹. This molecule came in with a t½ in assay [3] of 1.5 h.

B3: H4H12163P (antibody, human IgG4, V domains shown)
VH: EVQLVESGGDLVQPGGSLRLSCAASGFTFSSYAMNWVRQGPGKGLEWVSAISGRGDSTYYADSVKGRLTISRDNSKNTLYLQMNSLRAEDTAVYYCVKEGEQLVYWYFDLWGRGTLVTVSS
VL: DIQMTQSPSSLSASVGDRVTITCRASQTISNFLHWYQQKPGKAPKLLIYAASSLQSGVPSRFSGSGSGTDFTLTISSLQPEDFSTYFCQQSYTTPLTFGGGTKVEIK
B3: in assay [1], the “100 nM Human C5 Bound (RU)” value was determined as 108 RU, binding was characterised by a dissociation constant (Kd) of 324 pM, the koff was determined as 0.000208 s⁻¹ and the kon came to 643000 M⁻¹ s⁻¹. Also, the t½ in assay [1] came to 0.917 h. In addition, in assay [2], the “100 nM monkey C5-mmh Bound (RU)” value amounted to 98 RU, binding was characterised by a dissociation constant (Kd) of 2490 pM, the koff amounted to 0.000775 s⁻¹ and the kon came out at 311000 M⁻¹ s⁻¹. Also, in assay [2], the “t1/2” value amounted to 0.25 h. In addition, in assay [3], the “100 nM Human C5 Bound (RU)” value amounted to 139 RU; the affinity, expressed as Kd, was 729 pM; the off-rate constant (koff) turned out to be 0.000665 s⁻¹; the on-rate (kon) worked out at 911000 M⁻¹ s⁻¹. The same molecule had a t½ in assay [3] of 0.283 h.

B4: H4H12176P2 (antibody, human IgG4, V domains shown)
VH: EVQLVESGGGLVQPGGSLRLSCAASGFHSNRYWMDWVRQAPGKGLEWVANIKQDGSEENYVDSVKGRFTISRDNAKNSLYLQMNSLRAEDTAVYYCARDRSTSWVPYWFFDLWGRGTLVTVSS
VL: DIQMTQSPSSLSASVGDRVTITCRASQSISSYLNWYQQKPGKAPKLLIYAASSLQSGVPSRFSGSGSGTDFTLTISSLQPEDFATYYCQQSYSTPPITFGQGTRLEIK
For the molecule B4, in assay [1], the “100 nM Human C5 Bound (RU)” value came to 96 RU; the affinity, expressed as Kd, was 201 pM; the koff is 6.75e-05 s⁻¹; the kon was 336000 M⁻¹ s⁻¹. Further, the t½ in assay [1] was determined as 2.85 h. For the same molecule, in assay [2], the “100 nM monkey C5-mmh Bound (RU)” value was found to be 69 RU, the Kd was 322 pM, the koff came to 5.88e-05 s⁻¹ and the kon is 182000 M⁻¹ s⁻¹. Further, the “t1/2” value in assay [2] was 3.27 h. Moreover, in assay [3], the “100 nM Human C5 Bound (RU)” value is 71 RU, the Kd is 1590 pM, the dissociation rate constant (koff) is 0.000234 s⁻¹ and the kon amounted to 147000 M⁻¹ s⁻¹. This molecule also gave a t½ in assay [3] of 0.817 h.

B5: H4H12167P (antibody, human IgG4, V domains shown)
VH: QVQLVESGGGLVKPGGSLRLSCAASGFTFSDSYMSWIRQAPGKGLEWISYIGSSGNTFYYADSVKGRFTISRDNANNLLYLQMTSLRAEDTAVYYCAREEGDFWSAVDSWGQGTLVTVSS
VL: DIQLTQSPSFLSASVGDRVTITCWASQGISSYLAWYQQKPGKAPKLLIHTASTLQSGVPSRFSGSGSGTEFTLTISNLQPEDFATYYCQQLNSYPFTFGPGTKVDIK
Consider B5, for which, in assay [1], the “100 nM Human C5 Bound (RU)” value came out at 116 RU, binding was put at a Kd of 121 pM, the off-rate constant (koff) came out at 0.000131 s⁻¹ and the on-rate constant (kon) amounted to 1.09e+06 M⁻¹ s⁻¹. Also, the t½ in assay [1] is 1.47 h. Also, in assay [2], the “100 nM monkey C5-mmh Bound (RU)” value stood at 111 RU; the affinity, expressed as Kd, was 315 pM; the koff is 0.000132 s⁻¹; the kon came out at 419000 M⁻¹ s⁻¹. Moreover, the “t1/2” value in assay [2] was determined as 1.47 h. In assay [3], the “100 nM Human C5 Bound (RU)” value is 153 RU, binding was put at a Kd of 295 pM, the koff came out at 0.000381 s⁻¹ and the kon came out at 1.29e+06 M⁻¹ s⁻¹. The molecule further yielded a t½ in assay [3] of 0.5 h.

B6: H4H12159P (antibody, human IgG4, V domains shown)
VH: QVQLVESGGGVVQPGRSLRLSCGASGFTFSTYGMHWVRQAPGKGLEWVAVIWDDGNNKYYADSVKGRFTISRDNSKNTLYLQMNSLRAEDTAVYYCARDSEVAPVGDYWGQGTLVTVSS
VL: DIQMTQSPSTLSASVGDRVTIICRASQSINRWLAWYQQKPGKAPKLLIYKASSLESGVPSRFSGSGSGTEFTLTISSLQPDDFAAYYCQQYNDYSYTFGQGTKLEIK
Consider B6, for which, in assay [1], the “100 nM Human C5 Bound (RU)” value turned out to be 118 RU, the Kd is 73.1 pM, the koff came out at 7.13e-05 s⁻¹ and the kon was 975000 M⁻¹ s⁻¹. Further, the t½ in assay [1] was found to be 2.7 h. Moreover, in assay [2], the “100 nM monkey C5-mmh Bound (RU)” value worked out at 116 RU, the dissociation constant Kd was found to be 133 pM, the koff stood at 4.69e-05 s⁻¹ and the on-rate constant (kon) was 354000 M⁻¹ s⁻¹. In assay [2], the “t1/2” value turned out to be 4.1 h. Further, in assay [3], the “100 nM Human C5 Bound (RU)” value stood at 145 RU; the affinity, expressed as Kd, was 103 pM; the koff was 0.000107 s⁻¹; the kon came out at 1.04e+06 M⁻¹ s⁻¹. The same molecule came in with a t½ in assay [3] of 1.8 h.

For the origin of these results see US20170355757A1 (Regeneron, published 2017).
